The nature of this data set: soluble on expression in E. coli; label from the status in PepcDB or PDB records.
For “AAEKTGKCRVVTTTGTADWSVRESFNNYLEGPIANGAAYKYHGGIEVRDGVETTGTKSAREFTWPVLGSEEGAVKLGGGVHWTGHNHYSGDDESQAPDNFILDLDFSNPTVKFDGNEGTLLVDFKSREFVDTKTVADFLTGTQAELATITFDEPIDLTQENVTVTGQTKLTATGVDVMGTFYPEGEALAPITLNLTN”, the “soluble on expression in E. coli” value is “not soluble”.

With “AAIRHITTGTYIARIREEYQQTEVKPELQPMKEALARMTDRAEALIAFVTEQKDQELLDFQARRLVEMTAHAVFGHLLMLAANDDDSFRQSAEVYLRYGQAEQEKIDSYVRAFRPEELTFYSRCSRPE”, the “soluble on expression in E. coli” value was “soluble”. For “AATTVNGGTVHFKGEVVNAACAVDAGSVDQTVQLGQVRTASLAQEGATSSAVGFNIQLNDCDTNVASKAAVAFLGTAIDAGHTNVLALQSSAAGSATNVGVQILDRTGAALTLDGATFSSETTLNNGTNTIPFQARYFATGAATPGAANADATFKVQYQGGGGGGAATTVNGGTVHFKGEVVNA” the value was “soluble”; for “ACDYTCGSACYSSSDVSTAQAAGYKLHEDGETVGSNSYPHKYNNYEGFDFSVSSPYYEWPILSSGDVYSGGSPGADRVVFNENNQLAGVITHTGASGNNFVECT”, “soluble”; for “ADGNNIKAPIETAVKPPHRTEDNIRDEARRNRSNAVNPFSAKYVPFNAAPGSTESYSLDEIVYRSRSGGLLDVEHDMEALKRFDGAYWRDLFDSRVGKSTWPYGSGVWSKKEWVLPEIDDDDIVSAFEGNSNLFWAERFGKQFLGMNDLWVKHCGISHTGSFKDLGMTVLVSQVNRLRKMKRPVVGVGCASTGDTSAALSAYCASAGIPSIVFLPANKISMAQLVQPIANGAFVLSIDTDFDGCMKLIREITAELPIYLANSLNSLRLEGQKTAAIEILQQFDWQVPDWVIVPGGNLGNIYAFYKGFKMCQELGLVDRIPRMVCAQAANANPLYLHYKSGWKDFKPMTASTTFASAIQIGDPVSIDRAVYALKKCNGIVEEATEEELMDAMAQADSTGMFICPHTGVALTALFKLRNQGVIAPTDRTVVVSTAHGLKFTQSKIDYHSNAIPDMACRFSNPPVDVKADFGAVMDVLKSYLGSNTLTS”, “soluble”. For “ADTFNLAKDIHSRILSIDTHTDTPLWFKNGYSVGLRKDNMVSIPKMEEGKLDAQFLAAFIWQGKRDDASSQKAVESTTRLIQSIYDEVEQYKDFCGIALTEEDLVRLKNEGKKAFFIGIENGYAIGKDLKNIKKYKQMGVNYITLCHSYDNDICHSSTHTEDATQGLTQFGREVVKEMNRLGIMIDISHASEGTFWDVIKYSAQPIIASHSSSKALCDHDRNLTDEQLRALAKNGGVAQLCLLDAYINKKTKAASICDAVEHLDHMIKVAGIDHVGIGTDFDGGGGLQGCRGDNDLINLTIKMIEKGYTEEDLRKIWGGNLLRVMKQVQEAPLLSSKKRR” the value was “not soluble”; for “ADTPGEATPPPRKKKDIRDYNDADMARLLEQWEKDDDIEEGDLPEHKRPSAPIDFSKLDPGKPESILKMTKKGKTLMMFVTVSGNPTEKETEEITSLWQGSLFNANYDVQRFIVGSDRAIFMLRDGSYAWEIKDFLVSQDRCAEVTLEGQMYPGKGGGSKEKNKTKPEKAKKKEGDPKPRASKEDNRAGSRREDL”, “soluble”; for “AGIKVFGHPASIATRRVLIALHEKNLDFELVHVELKDGEHKKEPFLSRNPFGQVPAFEDGDLKLFESRAITQYIAHRYENQGTNLLQTDSKNISQYAIMAIGMQVEDHQFDPVASKLAFEQIFKSIYGLTTDEAVVAEEEAKLAKVLDVYEARLKEFKYLAGETFTLTDLHHIPAIQYLLGTPTKKLFTERPRVNEWVAEITKRPASEKVQ”, “soluble”. For “AGSNGAQEKKYIVGFKQTMSTMSAAKKKDVISEKGGKVQKQFKYVDAASATLNEKAVKELKKDPSVAYVEEDHVAHAY” the value was “soluble”. For “AHHHHHHGSELFFITSNDGKVREAKKFLEPLGINVIKKPLEYPEIQADTLEDVVVFGLNWLKDKVDKPFIIEDSGLFIEALNGFPGVYSAYVYKTIGLDGILKLMEGIENRKAYFKSVIGFYDGEIHLFVGEVRGRISNEKRGLHGFGYDPIFVPDGFDKTFAEMSTEEKNSVSHRGKALKEFYRWMKENLKK”, the “soluble on expression in E. coli” value is “soluble”. For “AHHHHHHGSGVEEHKKEAPKTFKFGVITVSDKGAKGEREDKSGPLIIEELSKLGEHVYYKIVPDDKIEVLIALFEAIKSGADVVVTTGGTGITRRDITIESIKPLFDKELSFGEVFRAKSYEEVGYATVLTRATAGIIRGQERIVVVFSLPGSVNAVKTGLEIIKSEVFHILKHARE” the value was “soluble”. For “AHHHHHHGSGVPIGEIIPRKEIELENLYGKKIAIDALNAIYQFLSTIRQKDGTPLMDSKGRITSHLSGLFYRTINLMEAGIKPVYVFDGEPPEFKKKELEKRREAREEAEEKWREALEKGEIEEARKYAQRATRVNEMLIEDAKKLLELMGIPIVQAPSEGEAQAAYMAAKGSVYASASQDYDSLLFGAPRLVRNLTITGKRKLPGKNVYVEIKPELIILEEVLKELKLTREKLIELAILVGTDYNPGGIKGIGLKKALEIVRHSKDPLAKFQKQSDVDLYAIKEFFLNPPVTDNYNLVWRDPDEEGILKFLCDEHDFSEERVKNGLERLKKAIKSGKQSTLESWFKR” the value was “soluble”; for “AHHHHHHGSIDDLVERMRKGDRRAVARLITLVENDEKKAREIIKRIYPLTGNAYIVGITGPPGSGKSTLVDKLVKEARKEGLIVGVIAVDPTSPFTGGALLGDRIRMQDHATDPGVFIRSMATRGSLGGLAKATNDAIKILDAYGCDIIFVETVGVGQVEVDIVKTADTVVLVTVPGLGDDIQAIKAGLMEIADIFVLNKADREGADATYFELSLTLDLESEKWEKLGWRPPIVETVATLGKGIKELWEQIKRHREFLEKSGKLEEKKRLRVEEEIKTIVSDMIAKKVEVSIKAGNLEDILEKVMKKELDPYSAASLIMEKIIGGGKSV”, “soluble”. For “AHHHHHHGSIRASKRALSVEYAIRDVVLPARELEKKGIKVIRLNIGDPVKFDFQPPEHMKEAYCKAIKEGHNYYGDSEGLPELRKAIVEREKRKNGVDITPDDVRVTAAVTEALQLIFGALLDPGDEILVPGPSYPPYTGLVKFYGGKPVEYRTIEEEDWQPDIDDIRKKITDRTKAIAVINPNNPTGALYDKKTLEEILNIAGEYEIPVISDEIYDLMTYEGEHISPGSLTKDVPVIVMNGLSKVYFATGWRLGYMYFVDPENKLSEVREAIDRLARIRLCPNTPAQFAAIAGLTGPMDYLKEYMKKLKERRDYIYKRLNEIPGISTTKPQGAFYIFPKIEVGPWKNDKEFVLDVLHNAHVLFVHGSGFGEYGAGHFRAVFLPPIEILEEAMDRFEKFMKERLKE” the value was “soluble”; for “AHHHHHHGSLHLKEKLKGTTTVGLVCKEGVVLAADTRASLGNIIYAKNVTKIHKIDEHLAIAGAGDVGDILNLVRLLKAEANLYKSTVGKEMSVKALATLLANILNGSKYFPYLGWFLVGGYDEKPRLFSVDMVGGITEDNYAAAGSGMEFAYSILDSEYREEMSVNDGIKLAVKAINVAIKRDVFTGDGLLVVTITKDGYKEYRGAELEKMLK”, “not soluble”. For the sequence “AHHHHHHGSNRKLDEFLGSNDPPATKEENQKVKKKQRLRATNLDEFLPEDHINFFKNLRIGSKKIARKKIEEL”, the “soluble on expression in E. coli” value was “not soluble”. Turning to “AHHHHHHGSPKIEPFEKYTERYEEWFERNKFAYLSELNALKSLLPTRECVEVGIGSGRFAAPLGIKMGVEPSKKMAEIARKRGIRVIEGVAENLPFEDNSLDCILMVTTICFVDDPEKAIKEAYRVLKPGGYIVIGFVDKESLIGREYEKRKDKSVFYRDARFFSAREIMELLERNGFKIDGVVQTLFKKLDEIRDVEPVEEGYGRGSFVVIRAKKVV”, the “soluble on expression in E. coli” value is on record as “soluble”.
